In article PMC2064081:

Target: MIM/IMD-L (IRSp53/MIM domain of mouse missing-in-metastasis, longer splice variant) (mouse) (UniProt Q8R1S4)
Experiment: SPR

Sequence of MIM/IMD-L (IRSp53/MIM domain of mouse missing-in-metastasis, longer splice variant) (mouse) (Q8R1S4 1-250, change not shown): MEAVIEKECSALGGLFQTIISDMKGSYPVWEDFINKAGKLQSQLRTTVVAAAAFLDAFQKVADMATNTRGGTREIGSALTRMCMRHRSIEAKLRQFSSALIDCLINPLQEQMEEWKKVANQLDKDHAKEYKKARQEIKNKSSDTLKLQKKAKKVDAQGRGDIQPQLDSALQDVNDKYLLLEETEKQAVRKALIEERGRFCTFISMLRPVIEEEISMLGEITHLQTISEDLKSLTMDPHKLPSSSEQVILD

GST-Rac (V12), dominant-active Rac (from UniProt P63000 1-192) (natural protein)
equilibrium binding level relative to MIM/IMD-S: 10 to 15%
